Results on one molecule are retold here after article PMC12370991, “Visualizing acyl carrier protein interactions within a crosslinked type I polyketide synthase” (Nature Communications, 2025).

One assay has as its target T1, E. coli FabA (DH) (E. coli, UniProt P0A6Q3 2-172).
T1 construct: FabA, type II FAS dehydratase, E. coli
T1 sequence: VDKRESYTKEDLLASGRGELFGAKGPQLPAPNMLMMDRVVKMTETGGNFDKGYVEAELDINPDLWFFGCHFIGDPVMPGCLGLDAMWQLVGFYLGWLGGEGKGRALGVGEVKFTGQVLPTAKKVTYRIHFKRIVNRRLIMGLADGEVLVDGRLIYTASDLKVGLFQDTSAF
As to the kind of experiment: cross-linking. Particulars: both partners purified.

In the next assay the target is T2, E. coli FabF (KS) (E. coli, UniProt P0AAI5 1-413).
T2 construct: FabF, type II FAS ketosynthase, E. coli
T2 sequence (looked up): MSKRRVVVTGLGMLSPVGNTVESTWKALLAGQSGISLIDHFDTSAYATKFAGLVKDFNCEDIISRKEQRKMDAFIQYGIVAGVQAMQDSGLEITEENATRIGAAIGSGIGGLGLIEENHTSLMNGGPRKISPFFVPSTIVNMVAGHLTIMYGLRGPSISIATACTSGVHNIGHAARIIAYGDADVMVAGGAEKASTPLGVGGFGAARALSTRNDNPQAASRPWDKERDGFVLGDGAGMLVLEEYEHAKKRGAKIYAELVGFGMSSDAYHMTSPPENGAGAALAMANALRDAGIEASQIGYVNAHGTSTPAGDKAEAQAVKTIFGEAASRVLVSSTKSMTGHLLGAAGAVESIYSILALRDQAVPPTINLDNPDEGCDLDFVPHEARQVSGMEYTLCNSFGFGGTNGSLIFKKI
Put plainly: cross-linking. Particulars: both partners purified.

B1: E. coli crypto-AcpP (acyl carrier protein of the type II FAS loaded with a crosslinker) (natural protein)
chain: MSTIEERVKKIIGEQLGVKQEEVTNNASFVEDLGADSLDTVELVMALEEEFDTEIPDEEAEKITTVQAAIDYINGHQA
modifications: crosslinker 2, 3, 5, 6 or 8 loaded chemoenzymatically (crypto-AcpP)
notes: AcpP, acyl carrier protein of the type II fatty acid synthase, E. coli; also called E. coli ACP; source: crypto-AcpP purified by SEC
Regarding B1, the binding result with E. coli FabA (DH) and in the assay with E. coli FabF (KS) was “binds” each time.
